Data on 52 substances can be found in patent US20140212458A1.

The target of assay [1] is BG505 SOSIP.664-D7324 gp140 trimer (HIV-1 BG505 (clade A)). Briefly: D7324-capture ELISA, average of 2-6 titrations.
In assay [2] the target is BG505 SOSIP.664 gp140 trimer (HIV-1 BG505 (clade A)). Briefly: ITC, two-site model.
For assay [3] the target is unchanged. Briefly: ITC, antibody titrated into trimer.
The target of assay [4] is BG505 SOSIP.664-D7324 gp140 trimer (HIV-1 BG505 (clade A)). Briefly: D7324-capture ELISA (panel A).
Assay [5] has as its target BG505 gp120-D7324 monomer (HIV-1 BG505 (clade A)). Briefly: D7324-capture ELISA (panel A).
For assay [6], the target named is BG505 SOSIP.664-D7324 gp140 trimer (HIV-1 BG505 (clade A)). The experiment in a line: D7324-capture ELISA (panel B).
For assay [7], the target named is BG505 SOSIP.664 gp140 trimer (HIV-1 BG505 (clade A)). The experiment in a line: negative stain EM, 2D class averages; Fab 240 nM, trimer 14 nM.
Assay [8] shares this target. The experiment in a line: negative stain EM.
The target is the same in assay [9]. The experiment in a line: negative stain EM, 2D class averages; Fab 600 nM, trimer 40 nM.
Assay [10] concerns the target BG505 gp120-D7324 monomer in the presence of sCD4 (HIV-1 BG505 (clade A)). Briefly: D7324-capture ELISA with sCD4 (panel B).
Assay [11] concerns the target BG505 gp41ECTO-His (HIV-1 BG505 (clade A)). The experiment in a line: Ni-NTA-capture ELISA (panel C).
In assay [12] the target is BG505 SOSIP.664 gp140 trimer (HIV-1 BG505 (clade A)). Briefly: negative stain EM, 2D class averages; Fab 860 nM, trimer 48 nM.
Assay [13] concerns the target recombinant HIV-1 envelope glycoprotein gp120 BG505 clade A (HIV-1 BG505 (clade A)). The experiment in a line: ELISA on BG505 gp120.
In assay [14] the target is BG505 SOSIP.664-D7324 gp140 trimer (HIV-1 BG505 (clade A)). Briefly: D7324-capture ELISA (panel D).
Assay [15] addresses BG505 SOSIP.664 gp140 trimer (HIV-1 BG505 (clade A)). The experiment in a line: ITC.
The target in assay [16] is BG505 gp120 monomer (HIV-1 BG505 (clade A)). The experiment in a line: ITC.
In assay [17] the target is BG505 SOSIP.664 gp140 trimer (HIV-1 BG505 (clade A)). Briefly: ITC. The source holds these as a separate data set.
For assay [18] the target is unchanged. Briefly: ITC, Fab titrated into Env, 25 C.
In assay [19] the target is BG505 gp120 monomer (HIV-1 BG505 (clade A)). Briefly: ITC, Fab titrated into Env, 25 C.
Assay [20] deals with BG505 SOSIP.664 gp140 trimer (HIV-1 BG505 (clade A)). The experiment in a line: SDS-PAGE of SEC fractions, ImageJ.
The target is the same in assay [21]. Briefly: ITC, Fab titrated into trimer; footnote f: data previously described elsewhere (Julien 2013, the applicants' own PG9:trimer study, also an example of this filing).
Assay [22] has the same target. The experiment in a line: negative stain EM (not shown).
For assay [23], the target named is BG505 SOSIP.664-His gp140 trimer (HIV-1 BG505 (clade A)). Briefly: SPR, trimer on NTA chip, IgG 1,000 nM.
Assay [24] deals with JR-FL gp120 core with mini V3 (HIV-1 JR-FL). The experiment in a line: ITC.
Assay [25] concerns the target BG505 SOSIP.664-His gp140 trimer (HIV-1 BG505 (clade A)). Briefly: Ni-NTA-capture ELISA (panel C).
The target of assay [26] is BG505 SOSIP.664 gp140 trimer (HIV-1 BG505 (clade A)). Briefly: negative stain EM, 2D class averages; Fab 480 nM, trimer 44 nM.

Several values for one entry are separate records, joined by “and”; a condition that tells them apart may be missing. Identical values can stand only once.

For 1NC9 (antibody), the EC50 in assay [1] worked out at 0.735 µg/mL.
In assay [2], 2G12 (antibody) showed a Kd2 (second, low affinity binding event) of 12.3 µM. In assay [3], the -TΔS is 28.4 kcal/mol; the Kd was 16 nM and 2.4 µg/mL; the N (stoichiometry of binding) was 2.4; the ΔG is -10.6 kcal/mol. Besides, in [3], the ΔH was -39 kcal/mol. Moreover, the EC50 (read off the curve) in assay [4] was found to be 0.02 µg/mL. For the same substance, the concentration giving a half-maximal response (EC50 (read off the curve)) in [5] came to 0.01 µg/mL. In addition, the EC50 in assay [1] turned out to be 0.027 µg/mL.
3BC176 (antibody): the concentration giving a half-maximal response (EC50) in assay [1] stood at 5.65 µg/mL.
Still for that read-out and setting: with 3BC315 (antibody) the figure was 0.962 µg/mL.
In turn, 3BNC60 (antibody) yielded an EC50 (read off the curve) in [6] of 0.03 µg/mL. In assay [1], this substance gave an EC50 of 0.095 µg/mL.
Substance 3BNC117 (antibody) gave an EC50 (read off the curve) in assay [6] of 0.1 µg/mL. For the same substance, the 50% effective concentration (EC50) in [1] worked out at 0.102 µg/mL.
For 7B2 (antibody), in assay [1], the EC50 was over 10 µg/mL.
The same measure, in the same setting: the figure for 8ANC195 (antibody) is 2.06 µg/mL; for 12A12 (antibody) it is 0.08 µg/mL.
As to 14e Fab, in [7], the % 1 Fab bound was 17%, the % 2 Fabs bound was found to be 2%, the % 3 Fabs bound was determined as 0% and the % trimer alone worked out at 81%. Besides, in assay [7], the particles, 1 Fab bound worked out at 4440 particles; the particles, 2 Fabs bound was determined as 610 particles; the particles, 3 Fabs bound worked out at 0 particles; the particles, trimer alone is 21900 particles.
Take 19b Fab: in [8], the % of trimers occupied by one, two or three Fabs worked out at 39%. In addition, in assay [9], the % 1 Fab bound stood at 30%, the % 2 Fabs bound was found to be 8%, the % 3 Fabs bound stood at 1% and the % trimer alone stood at 61%. In addition, in [9], the particles, 1 Fab bound worked out at 12500 particles; the particles, 2 Fabs bound came to 3050 particles; the particles, 3 Fabs bound is 211 particles; the particles, trimer alone came out at 25100 particles.
For the substance 45-46 (antibody), in assay [1], the EC50 worked out at 0.127 µg/mL.
For A32 (antibody), in [10], the EC50 (read off the curve) was found to be 0.04 µg/mL. In [1], this substance showed an EC50 of over 10 µg/mL.
As for CD4-IgG2 (Fc fusion), the EC50 in [1] was 0.155 µg/mL.
Turning to CH01 (antibody), the EC50 in [1] stood at 2.78 µg/mL.
Substance CH31 (antibody) returned a 50% effective concentration (EC50) in [1] of 0.347 µg/mL.
As to CH103 (antibody), in assay [1], the EC50 came to 0.792 µg/mL.
With CH106 (antibody), in assay [1], the EC50 is 2.57 µg/mL.
In [1], F91 (antibody) displayed an EC50 of over 10 µg/mL.
Still for that read-out and setting: the figure for F105 (antibody) is over 10 µg/mL.
On to F240 (antibody), for which the EC50 (read off the curve) in assay [11] was 0.01 µg/mL. For the same substance, the EC50 in [1] is over 10 µg/mL.
Consider F240 Fab, for which, in [12], the % 1 Fab bound worked out at 2%, the % 2 Fabs bound turned out to be 0%, the % 3 Fabs bound was 0% and the % trimer alone came out at 98%. In assay [12], the particles, 1 Fab bound amounted to 154 particles; the particles, 2 Fabs bound is 0 particles; the particles, 3 Fabs bound turned out to be 0 particles; the particles, trimer alone came to 6260 particles.
As to HJ16 (antibody), the EC50 in [1] amounted to 4.38 µg/mL.
As for PG9 (antibody), the figures for the EC50 (read off the curve) in assay [13] and in assay [14] were 0.04 µg/mL and 0.4 µg/mL, respectively. This substance also yielded a concentration giving a half-maximal response (EC50) in assay [1] of 0.343 µg/mL.
Turning to PG9 Fab, the Kd was 20 to 30 nM in assay [15]; 20 to 30 nM in assay [16]; 30 nM in assay [17]; 31 nM in assay [19]; 11 nM and 0.55 µg/mL in assay [21]. Besides, the ΔG is -10.1 kcal/mol in assay [18], -10.2 kcal/mol in assay [19] and -10.9 kcal/mol in [21]. The results for the ΔH in assay [18], in assay [19] and in assay [21] were -20.6 kcal/mol, -27.4 kcal/mol and -18.7 kcal/mol, respectively. In addition, the -TΔS came to 17.2 kcal/mol in assay [19] and 7.8 kcal/mol in assay [21]. Further, the N (stoichiometry of binding) amounted to 0.4 in assay [19] and 0.8 in assay [21]. The substance also displayed a gp140 protomers per PG9 Fab in assay [20] of 3.
Turning to PG16 (antibody), the EC50 (read off the curve) in assay [13] is 0.2 µg/mL; in [14], 0.1 µg/mL. The same substance had an EC50 in assay [1] of 0.199 µg/mL.
Substance PGT121 (antibody) displayed an EC50 (read off the curve) in [6] of 0.09 µg/mL. The same substance displayed a concentration for a half-maximal effect (EC50) in assay [1] of 0.095 µg/mL.
With PGT121 Fab, in assay [3], the -TΔS came to 20.6 kcal/mol; the Kd was 151 nM and 7.55 µg/mL; the N (stoichiometry of binding) was 2.4; the ΔG is -9.3 kcal/mol. In [3], the ΔH is -29.9 kcal/mol.
With PGT122 (antibody), in assay [1], the EC50 amounted to 0.159 µg/mL.
In [22], PGT122 Fab displayed a % of images with no Fabs bound of under 3% and a % of images with three Fabs bound of over 50%.
In the case of PGT123 (antibody), in [1], the EC50 was found to be 0.127 µg/mL.
Take PGT125 (antibody): the EC50 (read off the curve) in assay [6] turned out to be 0.04 µg/mL. The substance further yielded an EC50 in assay [1] of 0.047 µg/mL.
In the same order, the values of PGT126 (antibody) are 0.03 µg/mL and 0.026 µg/mL.
PGT127 (antibody) came in with a concentration for a half-maximal effect (EC50) in assay [1] of 0.066 µg/mL.
For PGT127 Fab, in assay [15], the N (stoichiometry of binding) was under 3. Also, in assay [17], the equilibrium dissociation constant (Kd) was determined as 70 nM.
For PGT128 (antibody), the EC50 (read off the curve) in assay [6], in assay [4] and in [5] was 0.04 µg/mL each time. This substance returned a plateau response (RU) in assay [23] of 750 RU. Besides, in [1], the EC50 came out at 0.058 µg/mL.
Regarding PGT128 Fab, the Kd2 (second, low affinity binding event) in assay [2] came to 20 µM. Moreover, in assay [3], the -TΔS was 11.6 kcal/mol; the Kd was 5.7 nM and 0.285 µg/mL; the N (stoichiometry of binding) was 2.3; the ΔG is -11.2 kcal/mol. Moreover, the ΔH in assay [3] is -22.8 kcal/mol.
Consider PGT130 (antibody), for which the EC50 in assay [1] was 0.524 µg/mL.
Still for that read-out and setting: with PGT135 (antibody) the figure was 0.521 µg/mL.
Consider PGT135 Fab, for which, in [24], the Kd worked out at 82 nM. In [22], the % of images with no Fabs bound is under 3% and the % of images with three Fabs bound was over 50%.
As to PGT136 (antibody), in assay [1], the EC50 came to 0.434 µg/mL.
Take PGT145 (antibody): the concentration giving a half-maximal response (EC50 (read off the curve)) in [14] was 0.06 µg/mL. The same substance yielded an EC50 in assay [1] of 0.114 µg/mL.
PGV04 (antibody) returned a concentration giving a half-maximal response (EC50) in assay [1] of 0.227 µg/mL.
In assay [22], PGV04 Fab had a % of images with no Fabs bound of under 3% and a % of images with three Fabs bound of over 50%.
As for VRC01 (antibody), the EC50 (read off the curve) in assay [25] came to 0.03 µg/mL. This substance registered an EC50 in assay [1] of 0.163 µg/mL.
VRC03 (antibody) gave a 50% effective concentration (EC50 (read off the curve)) in assay [6] of 0.6 µg/mL. The same substance came in with an EC50 in assay [1] of 0.647 µg/mL.
In turn, VRC06 (antibody) gave a concentration giving a half-maximal response (EC50) in [1] of 1.1 µg/mL.
Consider VRC06b (antibody), for which the EC50 (read off the curve) in assay [6] was found to be 0.4 µg/mL. In assay [1], this substance had an EC50 of 0.345 µg/mL.
X5 (antibody): in assay [1], the 50% effective concentration (EC50) was over 10 µg/mL.
For b6 (antibody), the plateau response (RU) in assay [23] worked out at 30 RU. Further, in assay [5], the EC50 (read off the curve) was 0.09 µg/mL. Moreover, in assay [1], the EC50 is 0.871 µg/mL.
Turning to b6 Fab, in [26], the % 1 Fab bound amounted to 6%, the % 2 Fabs bound was 0%, the % 3 Fabs bound is 0% and the % trimer alone is 94%. In addition, in assay [26], the particles, 1 Fab bound came out at 354 particles; the particles, 2 Fabs bound was 0 particles; the particles, 3 Fabs bound is 0 particles; the particles, trimer alone came to 5610 particles.
On to b12 (antibody), for which, in assay [13], the EC50 (read off the curve) was found to be 0.03 µg/mL. The substance further registered an EC50 in assay [1] of over 10 µg/mL.
